Measurements published in PMC11674828.

Substrate: N[C@@H](CC(=O)O)C(=O)O
Assay: purified protein
Details: pH 8.0

B1: (Corynebacterium glutamicum ATCC 13032) (protein)
chain 1: MLRTILGSKIHRATVTQADLDYVG
chain 2: SVTIDADLVHAAGLIEGEKVAIVDITNGARLETYVIVGDAGTGNICINGAAAHLINPGDLVIIMSYLQATDAEAKAYEPKIVHVDADNRIVALGNDLAEALPGSGLLTSRSI
- Km: 4.3 ± 0.2 mM
- kcat: 2.8 s⁻¹
- kcat/Km: 650 M⁻¹ s⁻¹

B2: (Thermus thermophilus HB8) (protein)
chain 1: MKRVMFHAKIHRATVTQADLHYVG
chain 2: SVTVDQDLLDAAGILPFEQVDIYDITNGARLTTYALPGERGSGVIGINGAAAHLVKPGDLVILVAYGVFDEEEARNLKPTVVLVDERNRILEVRKG
- Km: 8.5 ± 0.1 mM
- kcat: 2.2 s⁻¹
- kcat/Km: 260 M⁻¹ s⁻¹

B3: (Escherichia coli K-12) (protein)
chain 1: MIRTMLQGKLHRVKVTHADLHYEG
chain 2: SCAIDQDFLDAAGILENEAIDIWNVTNGKRFSTYAIAAERGSRIISVNGAAAHCASVGDIVIIASFVTMPDEEARTWRPNVAYFEGDNEMKRTAKAIPVQVA
- Km: 7.9 ± 0.1 mM
- kcat: 1.4 s⁻¹
- kcat/Km: 180 M⁻¹ s⁻¹
